Measurements reported in patent publication US20120231467A1.

Molecular target: Toxin B, native full-length (270 kDa) (Clostridium difficile) (UniProt P18177)
Test: filter
Conditions: 2NapdU at every N (replaces all dT)

Chain of UniProt P18177 (P18177 2-2366): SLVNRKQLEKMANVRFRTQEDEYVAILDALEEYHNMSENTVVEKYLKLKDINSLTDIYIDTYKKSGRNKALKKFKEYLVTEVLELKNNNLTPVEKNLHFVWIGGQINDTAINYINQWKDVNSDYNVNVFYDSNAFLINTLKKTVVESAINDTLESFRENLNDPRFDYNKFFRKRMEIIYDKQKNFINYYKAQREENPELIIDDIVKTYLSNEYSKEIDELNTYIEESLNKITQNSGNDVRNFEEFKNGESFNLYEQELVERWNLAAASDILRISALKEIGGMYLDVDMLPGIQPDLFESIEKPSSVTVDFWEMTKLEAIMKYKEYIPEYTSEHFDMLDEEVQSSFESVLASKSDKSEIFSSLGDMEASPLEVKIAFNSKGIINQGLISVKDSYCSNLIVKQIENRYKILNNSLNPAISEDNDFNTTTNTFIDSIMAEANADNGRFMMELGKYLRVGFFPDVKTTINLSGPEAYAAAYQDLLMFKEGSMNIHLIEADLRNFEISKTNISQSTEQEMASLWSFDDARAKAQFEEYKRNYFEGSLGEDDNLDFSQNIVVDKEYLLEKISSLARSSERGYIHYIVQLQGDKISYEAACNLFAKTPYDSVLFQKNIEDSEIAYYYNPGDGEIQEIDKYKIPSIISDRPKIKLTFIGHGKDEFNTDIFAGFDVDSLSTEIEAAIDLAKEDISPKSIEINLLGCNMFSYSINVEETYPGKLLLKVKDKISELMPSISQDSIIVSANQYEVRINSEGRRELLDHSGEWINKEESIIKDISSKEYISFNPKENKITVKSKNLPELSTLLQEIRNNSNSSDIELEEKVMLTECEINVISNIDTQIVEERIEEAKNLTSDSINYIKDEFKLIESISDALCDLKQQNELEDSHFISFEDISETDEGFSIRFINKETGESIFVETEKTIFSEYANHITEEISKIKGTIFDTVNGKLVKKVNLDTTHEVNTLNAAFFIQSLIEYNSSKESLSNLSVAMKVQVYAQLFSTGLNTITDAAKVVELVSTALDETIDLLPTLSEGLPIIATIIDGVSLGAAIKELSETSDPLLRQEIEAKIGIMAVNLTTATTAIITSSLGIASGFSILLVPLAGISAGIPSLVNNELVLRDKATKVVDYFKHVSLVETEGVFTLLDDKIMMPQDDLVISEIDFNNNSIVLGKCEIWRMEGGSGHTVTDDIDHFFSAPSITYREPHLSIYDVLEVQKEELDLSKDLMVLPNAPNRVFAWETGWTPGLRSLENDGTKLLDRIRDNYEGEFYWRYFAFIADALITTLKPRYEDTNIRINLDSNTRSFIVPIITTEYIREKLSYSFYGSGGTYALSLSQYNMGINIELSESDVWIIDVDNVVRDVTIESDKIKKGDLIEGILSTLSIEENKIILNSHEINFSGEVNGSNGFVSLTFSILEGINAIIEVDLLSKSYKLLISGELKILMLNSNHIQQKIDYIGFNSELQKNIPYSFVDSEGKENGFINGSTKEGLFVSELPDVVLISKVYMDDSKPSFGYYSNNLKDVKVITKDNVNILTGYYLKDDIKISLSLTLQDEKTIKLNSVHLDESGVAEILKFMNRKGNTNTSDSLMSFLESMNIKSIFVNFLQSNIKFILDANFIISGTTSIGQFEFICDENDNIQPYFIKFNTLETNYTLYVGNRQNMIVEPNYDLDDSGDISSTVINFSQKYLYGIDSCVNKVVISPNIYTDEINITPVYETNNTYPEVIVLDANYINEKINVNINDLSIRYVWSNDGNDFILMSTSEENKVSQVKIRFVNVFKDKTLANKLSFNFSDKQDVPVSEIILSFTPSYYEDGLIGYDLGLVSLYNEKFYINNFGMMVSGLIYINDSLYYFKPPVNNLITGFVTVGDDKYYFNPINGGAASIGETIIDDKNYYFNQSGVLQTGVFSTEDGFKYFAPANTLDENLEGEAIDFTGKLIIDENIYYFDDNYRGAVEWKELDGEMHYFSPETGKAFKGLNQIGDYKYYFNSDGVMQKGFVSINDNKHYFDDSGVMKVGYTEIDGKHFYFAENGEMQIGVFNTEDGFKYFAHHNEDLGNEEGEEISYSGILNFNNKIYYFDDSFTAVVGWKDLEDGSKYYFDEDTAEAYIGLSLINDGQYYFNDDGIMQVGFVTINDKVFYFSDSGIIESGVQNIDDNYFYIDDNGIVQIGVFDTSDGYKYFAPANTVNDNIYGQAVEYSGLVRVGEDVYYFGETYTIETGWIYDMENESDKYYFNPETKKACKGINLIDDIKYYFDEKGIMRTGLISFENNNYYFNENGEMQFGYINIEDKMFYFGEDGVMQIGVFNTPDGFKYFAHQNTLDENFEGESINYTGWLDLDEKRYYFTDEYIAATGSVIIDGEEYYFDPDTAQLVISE

“CNNNNNNACCGCNGCANGACNNNAGCGGCAGNCGNGNGNG [5566-77]” was tested. Which Kd did it give?
Its Kd is 0.23 nM.
